{"source": "patent US20230000916A1", "about": "(University of Pennsylvania, published 2023)", "biological_target": "T1, F12Q CAR", "T1 construct": "also called F12Qz CAR; F12Q chimeric receptor", "experiment": "flow cytometry; K562.64.86.F12Qz cells stained with soluble biotinylated CD3 epsilon, then streptavidin-PE", "data": [{"binder": "Biotinylated Human CD3 epsilon Protein (AcroBiosystems Cat #CDE-H82E1) (other, UniProt P07766 23-126, looked up, biotinylated, Bought reagent; also called soluble CD3-epsilon protein; soluble, biotinylated CD3ε protein) DGNEEMGGITQTPYKVSISGTTVILTCPQYPGSEILWQHNDKNIGGDEDDKNIGSDEDHLSLKEFSELEQSGYYVCYPRGSKPEDANFYLYLRARVCENCMEMD", "values": [{"measurement": "binding result", "value": "binds"}]}]}
